In US20230051580A1 (HUDSON INSTITUTE OF MEDICAL RESEARCH, published 2023):

T1: recombinant full-length (mature) human CXCL10 (human, UniProt P02778 22-98)
T1 construct: Recombinant protein from Genscript, used for immunisation and as the assay standard; also called full-length CXCL10; IP-10
T1 sequence: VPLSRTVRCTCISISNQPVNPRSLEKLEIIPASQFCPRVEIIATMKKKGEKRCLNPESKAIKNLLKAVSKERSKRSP

T2: short peptide comprising the intact N-terminus of human CXCL10 (NH2-VPLSRTVRCTCISISNQPVNPRSLE-COOH) (human)
T2 construct: Synthesised by Mimotopes; also called N-terminally intact CXCL10 peptide
T2 peptide: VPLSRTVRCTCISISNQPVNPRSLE

T3: short peptide comprising the truncated N-terminus of human CXCL10 (NH2-LSRTVRCTCISISNQPVNPRSLE-COOH) (human)
T3 construct: Synthesised by Mimotopes; also called VP-truncated N-term; N-terminally truncated form
T3 peptide: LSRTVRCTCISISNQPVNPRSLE


Key:
Experiment in all cases: SPR (ProteOn XPR36), antibody immobilised, antigen applied
[1] = target: T1, recombinant full-length (mature) human …
Method: (§1) Two monoclonal antibodies; namely mAb-RA2 specific for full length, N-terminally intact CXCL10, and mAb-RG2 specific for both full length and truncated CXCL10, were analysed by Surface Plasmon Resonance (SPR) for binding affinity against both forms of CXCL10. Experiments were performed using a ProteOn XPR36 SPRi biosensor (BioRad), equipped with a GLC chip. The chip was conditioned with 0.5% SDS, 50 mM NaOH and 100 mM HCl, and then the lanes were activated using equal parts 1-Ethyl-3-(3-dimethylaminopropyl) carbodiimide (EDAC) and N-Hydroxysuccinimide (NETS). The antibodies were immobilised in separate lanes at a concentration of 50 μg/mL in sodium acetate buffer (pH4.5), then each lane deactivated using ethanolamine. Antigens were applied to each lane, and binding was recorded as RU. All channels were regenerated using 0.85% […] between applications of antigen. Interspot and control RU were subtracted to give specific binding.
(§2) The inventors developed a monoclonal antibody that could differentiate between the N-terminally intact, chemotactically active form of CXCL10 and all other variants. Using full-length CXCL10 protein as the antigen, hybridoma clones were isolated and screened for reactivity against (i) full-length CXCL10 protein; and (ii) short synthetic peptides, representing either the intact or truncated N-terminus of CXCL10. Antibodies secreted by clone mAb-RA2 recognized both full-length and N-terminally intact CXCL10, but not the N-terminally truncated form (Table 4). Antibodies secreted by clone mAb-RG2 reacted with all proteoforms of CXCL10 tested. […] The open reading frames encoding the variable regions of both antibodies was sequenced.

[2] = target: T2, short peptide comprising the intact …
Method: as §1, §2

[3] = target: T3, short peptide comprising the truncated …
Method: as §1, §2

| Kd [1] [nM] | Kd [2] [nM] | Kd [3] [nM] | binding result [3] | Binder |
| --- | --- | --- | --- | --- |
| 0.00389 | 3.54 | 3 | – | anti-CXCL10 monoclonal antibody mAb-RG2 (antibody, V domains shown, It was immobilised on the chip in SPR, and used biotinylated as the detection antibody in the sandwich ELISA (ART); also called anti-CXCL10 antibody RG2) VH: QIQLVQSGPDLKKPGETVKISCKASGYTFTNYGMNWVKQAPGKGLKWMAWINTNSGEPTYAEEFKGRFALSLDTSASTAYLQINNLKNEDTATYFCARYTGEFFYNGSSYVSYWYFDVWGAGATVTVSS VL: DIVLTQSPASLAVSLGQRATISCRASKSVSSSGYSYMHWYQQKPGQPPKLLIYLASNLESGVPARFSGSGSGSDFTLNIHPVEEEDAATYYCQHSRDLPWTFGGGTKLEIKR |
| 0.49 | 0.736 | – | no binding | anti-CXCL10 monoclonal antibody mAb-RA2 (antibody, V domains shown, It was immobilised on the chip in SPR, and used biotinylated as the detection antibody in the sandwich ELISA (ART); also called anti-CXCL10 antibody RA2) VH: QVQLQQPGAELVRPGASVKLSCKASGYTFTSHWMIWVKQRPGQGLEWIGMIDPSDSATHYNQMFKDKATLTVDKSSSTAYMQLSSLTSEDSAVYYCANTRHDESWGQGTLVTVSA VL: DIQMTQSPSSLSASLGGRVTITCKASQDIHKYIAWYQHKPGKGPRLLIYDTSTLQPGIPSRFTGSGSGRDYSFSISNLEPEDIATYYCLQYDDLYTFGGGTKLEIKR |
